{"source": "paper PMC4446437", "about": "(Nucleic Acids Research, 2015)", "binders": {"B1": {"name": "GST-HIF-1α-(amino acids 576–785) (domain or fragment, human, UniProt Q16665 576-785, looked up)", "chain": "SFDQLSPLESSSASPESASPQSTVTVFQQTQIQEPTANATTTTATTDELKTVTKDRMEDIKILIASPSPTHIHKETTSATSSPYRDTQSRTASPNRAGKGVIEQTEKSHPRSPNVLSVALSQRTTVPEEELNPKILALQNAQRKRKMEHDGSLFQAVGIGTLLQQPDDHAATTSLSWKRVKGCKSSEQNGMEQKTIILIPSDLACRLLGQ"}}, "target": "T1, His-tagged Set7 (human, UniProt Q8WTS6 1-366)", "T1 sequence (looked up)": "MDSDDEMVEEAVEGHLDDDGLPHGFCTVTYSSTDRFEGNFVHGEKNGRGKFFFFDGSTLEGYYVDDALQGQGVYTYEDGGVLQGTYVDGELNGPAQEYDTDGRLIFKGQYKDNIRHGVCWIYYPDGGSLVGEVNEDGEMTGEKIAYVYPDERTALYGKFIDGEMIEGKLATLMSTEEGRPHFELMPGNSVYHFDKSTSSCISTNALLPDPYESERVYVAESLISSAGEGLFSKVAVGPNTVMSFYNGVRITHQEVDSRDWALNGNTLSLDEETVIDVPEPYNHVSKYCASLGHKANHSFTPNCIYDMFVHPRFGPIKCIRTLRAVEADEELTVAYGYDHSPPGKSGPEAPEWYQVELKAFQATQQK", "assay": "pull-down"}
{"binder": "B1", "values": [{"measurement": "binding result", "value": "binds"}]}
